Source: the domain aggregation screens of Martell et al. (2025)

Test: soluble fraction after stress (log2 fold change); higher = more stays soluble; pooled small domains, quantitative proteomics
Conditions: stress: pH 4
In short: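 Custom libraries of small protein domains were pooled and measured with high-throughput quantitative proteomics after pH 4 stress. The read-out is the fold change in the amount of each domain that stays soluble after the acid stress, taken as a measure of aggregation propensity. Fold changes are on a log2 scale, and higher values mean more of the domain stayed soluble.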

Row | Sequence | soluble fraction (log2)
1 | HMTELSLSEQAYQQLRRMIVRLDFAPGDVLREEALQEALGMSRTPIREALQRLAREHFVTVIPRRGMFVS | -1.22
2 | HMTELVIPDYFSKALAKNKKAKQVFEAFAYSHRKEYLQWITEAKTEETRNKRMATAIEWIAEGKGRNWKYA | ≥ 0.43
3 | HMTEPIESVTTIAGRRIPYRLVRSLRARRMRMTIKESQVTVTLPRGVPLGEAERFLQQNAAWLFKQLDKP | 0.162
4 | HMTESIHVGSKVTINNNAKRWATGQNIYSGVKGKTYTVIQMNGSRLLLDKVISWINKGDVHLPGS | 0.0896
5 | HMTESIKRDEAIRLNNGRIYTLDAAKIGTNEYEVMLFNPRTGEEIDSAKTSTEADAILQFDRLRRMYHR | -0.151
6 | HMTETELYDEVNRLIGLHLSERDRMILIMRDRDEFEIDAIAARTGLSEGNIRLILSRARRTVREAYRNNI | -1.6
7 | HMTETNSVTINERLTLYRRSRSGRWQARVKLNTGEWHRFSTGTADFEKAKESAHRELHNVGFRAENNLPQ | -0.174
8 | HMTFDWAAYEISEKEIRVMSLVAEGFSNKEIAQELFLSEGTVRNYISNILEKLGLRDRTQLAVHYLKAV | -1.52
9 | HMTFENMFIENSGETLDREFLVENLRGISWQSYDRSVDVLVSRLRGKLGETPNNTRFIKTIHGVGYKFIGE | -0.472
10 | HMTFGENLIRLRRQQGLSQEQLGMRIGVSRQTVSKWELNDTTPEMEKLIALADLFGLSLDELTGRV | -0.392
11 | HMTFNLDVDGDDQVTALGDGLMIIRKLFGATFAGDALTNKAISPDATRTTDEIHAYIEKGITSGVLD | -0.288
12 | HMTFPAILRELLEKHPQTGKRTTLKELGEAVGTRQQSISLYRNGDTQPSPDILVRIAAFFGVSVDYLL | -0.198
13 | HMTFPYTSLKDAPKNMKEIDGVPLTLDQVNQIAKVADSIGVSKEKNGYAIAKSQFKKSHHIENNRWVKNK | 0.126
14 | HMTFVHTQIEATKEWIISHPLDKHPAVAVVDSAGSIVIGEVDYISKSIVRLRFTAEFSGKAYL | -1.79
15 | HMTGAEGKLARYLLTVPSGEPLRLSATDLAKRLGISRASLYRAFQALEDARLIRREGKSMYVLDPAGLEGV | ≥ 0.43
16 | HMTGENWAERSRQLAAAGLLVLGKEAQEKIASLPNLIPLIEAAAASDTRLLNAQTIDELLSFVPTEETI | -0.98
17 | HMTGESVPAPLSGTIFKILVAPGEQVEEGQTVIILEAMKMETEISAPRSGVVGAINIKEGDSVQVGQSLFT | 0.104
18 | HMTGIKISVDRLQIGNYVKLPLNWKDHPFLFSSFAIKSQEEIDLIRRLGLKQVIMFPDKSSMPPKPV | -0.0359
19 | HMTGLSNFEFNQIKLDLMHELTQTPLRLTDLVNRITSFENEKTITVIRFLVDEGILLLKDDTLSVAKID | -1.47
20 | HMTGMEAAEFGKRIMKLRKQKGMTQSKLAEQINVSNKAISRWETGEGFPEITLLKPLAKALGTTVDELFGE | -0.271
21 | HMTGMEKFLTIPSIRESTAAFEREYLIHYLDENAWQVSKTAAAIGIERTTLYKKMKQLGIVPIEE | -0.166
22 | HMTGNWRQMHKVKSKETIYGIAKEYGITVDELTKANPGMEAPGYTLKKGDYIFIPYATADANV | 0.0315
23 | HMTGQEGLIGAHGVALTRLSNEEGEVKVQGEIWQARSDQEVAKGASIEVVHVDGLVLTVRPQH | 0.175

Row | Sequence | soluble fraction (log2)
24 | HMTGQLTEEELKQRQERAMSNPEIQGILSDPVMRQVLQDMSTDPKAAAEHQRNPTIMAKIQKLINAGIVQV | -0.0717
25 | HMTGSETLQDIFAHLEAGTVRTALSLIPRLDAVEYEQNRQRIAELAGVRPSALDDLRKQAKREEN | -0.434
26 | HMTGTKEQQVVMLNNILQKQLQAFELQGKRDYPMVTMKNMYNTLSKMVENAGLQTVESYFVDPIKGQQM | -0.266
27 | HMTGVEAIERYLASGVIPGVGPVLAKRLVERFGARTLEVIEDSPRRLTQVPGIGRQKARQIHQALKAQRE | 0.0508
28 | HMTGYVMIRVDGLSLEKFLNMAAEAGVRVSDVRRASYTVLYAVVSPRDLKKLQSVAPEKYTVTVR | -0.23
29 | HMTHANAALTPRHRLKVARLVVDEGWPVSEVAARFQVSWPTVKRWADRYRAGQSMQDRSSRP | 0.228
30 | HMTHEAEDLNALRMMVRDPIFSSDEPDLQQLRGAVAHAPQFVDRFKELYNDYQRLAEFVQNSL | -1
31 | HMTHFRTDERRREILSTIEADGRVSVSEIASRFDVSPVTIRSDLNYLAIQGKLKRVRGGAVLLDH | 0.275
32 | HMTIDNPESQKIMDMVPFFFQSRNYDEAIEALTYVIEQEPQFSEAYNKRATFYFMMGDLENSMKDIEITLA | -0.568
33 | HMTIGIGKSLDFNTSGEKAYRIYNFKGAYVGTFKASDMTSLKNEVQKSNVKAGAYMVRSLDGHVNRLIEIK | ≥ 0.43
34 | HMTIGKIVNIIEGSYANVRSAPDQNSEPIGRAYPGDAFLVDPLGSSGDWVKVTYEGQSGFIFQAYISV | -1.28
35 | HMTIGKRIKRRRIELKMSIDSLARTIGKDRSTVYRYESGAIDKVSSDVLAKLATALNTTPAYLIGL | 0.22
36 | HMTIKNHIDEILKKEPFILENIKNGLINISALARQIEPQLSRKVGKKLNVNAIIMTIKRMEIDQLNK | 0.0888
37 | HMTIPNGTVVNGTVLEAREAGAYLVRVAGQTLTAQANLPLLVGQHFRAVWDSSGDIPVLRLSDAEQALLGK | -0.121
38 | HMTIPRLPFAFAKRFGIVLDNRPSGFVAAHKEGLLPHVLLEVQRFLGDAYTLEVVSDDDFERILGQVYQT | -2.03
39 | HMTIPSYAEAVRYVRRQPRINTSTLADGLGIRWSLALDYLERMARSGVVGAIEDDGWWPVAR | 0.329
40 | HMTIRIPEEEYLTRAKRAAQMTAERGLDALFLFGSEGDFQNVRYFTSVTPIWERLGVVITASGKAAMLTGP | -0.0548
41 | HMTIRPEDVELVPAEDGYMQGDVVSNIFKGVHYELEVKANGYDWMVHTTKYVEVGSHVGIKVIPFNIQV | 0.22
42 | HMTISPYTKDDFLKGTKPFEDVYAHKADPFVHDRALEQMTIWAKSVGVNGFKKLYKAYIDSLRIKNKEI | 0.00637
43 | HMTKAGVDAWTRGDYAAAVKEWQAQAAKGDADAIFNLGQAFKLGKGVPQDLIKAEQLFGQAAA | -0.466
44 | HMTKDEIIIQSIIDAAKKLMQQYGLNKTTMEDIAKEAGKGKSTLYHYFKSKEEIFDQVINQEID | -1.06
45 | HMTKEEFLDEIKKELGFMPYEEVIKAEKYFESYFNGSEADEKVIERFGSPKYAAQNYYRTHVAN | 0.0371
46 | HMTKEEFLYELKKELSALDSAEATAYNLRYYSDYIDAEIAKGRSEQEVLDELGNPRWLVNSIKESG | -0.521

Row | Sequence | soluble fraction (log2)
47 | HMTKGDRIKARREELGLTQTDLAEAISSTKQNIYKYENNIISNIPSDKVEAIAEVLKISPAYLMGWGDE | -0.594
48 | HMTKGFSIQDISLSKSTMTFLQQNKITDLASLLSMSKSQIEGMKGFKPKMIQEIEKNLDKVGLVLAQD | -0.228
49 | HMTKGVKVEIGTEEASVDLYVVMEYGTPIQKAAYDAQESVRKAIETMTNLHVVRVDVHVQGVSF | ≥ 0.43
50 | HMTKGVWHTVKKGENLYRISLYYEVPQQEIKKANKIETENIVVGQKLFIPNTTKKSPIFALTP | -0.0478
51 | HMTKIDYSINQIYSLRNIENITIVLKDKRSFTGKILKIYWQNGSKIILFTTETRNYKFKEYEISEIYKS | -0.706
52 | HMTKIEYTEQEFNDFIQAYKNNRKMFPEDYIVKTQVVFINKGFSKSQADMIIAQIETRLRLQGE | -0.378
53 | HMTKIKAIFFDIDGTIRSFKTKTIPENTANTLKKLKEQGIKIFIATGRAPFHTTFLNDLLDFKFDGYITIN | -0.0405
54 | HMTKKSLFNQYLDDQKRLDIVTLQKAELVDLHKLADELNIDQYNQLKKNELIFKILQSNPSE | -0.361
55 | HMTKNEFLQGLKEELEGRVTHSAIQENIRYYDDYISQEVLKGSTEEEVTESLGGPRIIARTIVDAAYD | -2.29
56 | HMTKPLHELLSQREFQVFTQLAAGRSVGEIAQQLSLSSNTVSTYRARILEKTGTRNDVELALYAIRR | -0.231
57 | HMTKPTLMEVEIKGAIQNPGVYTLKRNSSISKLIKMSGPLLENADTSSISFTHILQDKDVVVIPEIK | -0.177
58 | HMTKQEYLNQLKNELVKQGVADAEDVVTEYEQHFAFKLADGFGEEEIAKKLGDPAAIASQFVG | -1.16
59 | HMTKQMELLAQGAAKLSVDLNQRQLDQLQTYYRELVDWNQRMNLTAITQYEEVQVKHFLDSL | -0.294
60 | HMTKRKNTEFRQQQIIEAAAKLIFKYGSEHLTVKRIAAQVGISEAAIYRHFTSKKSILSFLLSHIEE | -0.317
61 | HMTKRTVKSVARKIADFNRERHRMPTYEEMLTLLAVRSKSVVHFWMNKLLQEGILEKDESGHLTFV | 0.14
62 | HMTKSSAYLSAEKLINKKQYSDAIVKLNDALVTDSKNADIYNYLGFSHRKLGKMEDAAFFYNKALE | -0.165
63 | HMTLDDSFYQKADEIIANHTKEERSLIPIIQDIQAEYRYLPPELLTYVAKEIGITDARAYSVASFYENFS | -1.21
64 | HMTLDEDYFYYTLKAKEGYYRLYKKLGVDRKIIDSLNPNLKEMGLQVGMVIRVPKSQTSDLSVKNSLLVE | -0.61
65 | HMTLHDLFPQAVEFVSEKEMISTAELQRKLMISYNSAAKIIDQLLHVDFIQKSESAGKYSVLIK | -0.486
66 | HMTLNTQLFTWKKGVRVGEDDQGNIYYRTKDDKRRWVIFTGETEATKVSPDWHGWLHRTWATPPNK | -0.14
67 | HMTLPGQDFIRASQLKELIAKYDKQYYEEGVSDISDAEYDRLYEEYLEFENKYPELKDMADAPTKRV | -0.661
68 | HMTLREQISALIKQGKLTQAKLARETGVNGGALSAWINGKYTGNVETVEEPIKHWMALNERK | ≥ 0.43
69 | HMTLSVRQRMSQIINKIDVSNFTDFTKLFDINEGRLGVAVTFLAILELLKDTMIDVIQNEEFAPLHIKVSS | -0.339
